For 14 substances, IC50mut/IC50wt results are on record in article PMC3630169.

In assay [1] the target is FhbA from B. hermsii strain MAN (B. hermsii strain MAN). Description: radioligand binding; OspE, FhbA or Tuf coated on microtitre plates (5–25 µg/ml in PBS, 4°C, 12 h), blocked with 0.5% BSA/PBS; ^125I-FH19-20 (50,000 cpm/well) mixed with serial dilutions of FH19-20 mutants; 37°C, 60 min; IC50 from fitted inhibition curves, three experiments in triplicate.
The target of assay [2] is outer surface protein E (OspE) from B. burgdorferi sensu stricto strain N40 (B. burgdorferi sensu stricto strain N40). The assay is described as above.

For the substance “FH19-20 D1119G (from UniProt P08603 1107-1231) (domain or fragment)”, the IC50mut/IC50wt in assay [1] stood at 0.9; in assay [2], 0.6.
In the case of “FH19-20 E1198A (from UniProt P08603 1107-1231) (domain or fragment)”, the IC50mut/IC50wt was 25.1 in assay [1] and 24.7 in assay [2].
On the same counts, the results for “FH19-20 K1186A (from UniProt P08603 1107-1231) (domain or fragment)” are 0.5 and 0.2.
On the same counts, the results for “FH19-20 K1188A (from UniProt P08603 1107-1231) (domain or fragment)” are 1.6 and 0.8.
Regarding “FH19-20 L1189R (from UniProt P08603 1107-1231) (domain or fragment)”, the IC50mut/IC50wt was 4.9 in assay [1] and 2.9 in assay [2].
As for “FH19-20 Q1139A (from UniProt P08603 1107-1231) (domain or fragment)”, the IC50mut/IC50wt in assay [1] is 1.1; in assay [2], 1.2.
On the same counts, the results for “FH19-20 R1182A (from UniProt P08603 1107-1231) (domain or fragment)” are 18 and 3.
On the same counts, the results for “FH19-20 R1203A (from UniProt P08603 1107-1231) (domain or fragment)” are 41.9 and 4.7.
On the same counts, the results for “FH19-20 R1206A (from UniProt P08603 1107-1231) (domain or fragment)” are 3.1 and 3.4.
As to “FH19-20 R1210A (from UniProt P08603 1107-1231) (domain or fragment)”, the IC50mut/IC50wt in assay [1] stood at 1.8; in assay [2], 1.3.
On the same counts, the results for “FH19-20 R1215Q (from UniProt P08603 1107-1231) (domain or fragment)” are 2 and 33.8.
On the same counts, the results for “FH19-20 T1184R (from UniProt P08603 1107-1231) (domain or fragment)” are 1.7 and 1.2.
Consider “FH19-20 W1157L (from UniProt P08603 1107-1231) (domain or fragment)”, for which the IC50mut/IC50wt in assay [1] and in assay [2] was 1.4 each time.
Turning to “FH19-20 W1183L (from UniProt P08603 1107-1231) (domain or fragment)”, the IC50mut/IC50wt in assay [1] was 66.4; in assay [2] it was 97.1.
